Reference: patent US20200317768A1 (published 2020)
Where a chain is given by its changes, count along the chain named.

T1: soluble mouse FcγRII, His-tagged (mouse, UniProt P08101 30-210, limits assumed)
T1 construct: Captured on the chip by an anti-His antibody
T1 sequence (looked up): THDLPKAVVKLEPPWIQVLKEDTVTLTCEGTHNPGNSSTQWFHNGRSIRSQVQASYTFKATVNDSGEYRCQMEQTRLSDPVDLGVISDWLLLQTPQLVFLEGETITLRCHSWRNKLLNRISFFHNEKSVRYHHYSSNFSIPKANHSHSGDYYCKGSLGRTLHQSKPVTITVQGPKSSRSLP

T2: human FcγRIIb constitutively expressed on MDCK cells (human, UniProt P31994 43-310)
T2 sequence (looked up): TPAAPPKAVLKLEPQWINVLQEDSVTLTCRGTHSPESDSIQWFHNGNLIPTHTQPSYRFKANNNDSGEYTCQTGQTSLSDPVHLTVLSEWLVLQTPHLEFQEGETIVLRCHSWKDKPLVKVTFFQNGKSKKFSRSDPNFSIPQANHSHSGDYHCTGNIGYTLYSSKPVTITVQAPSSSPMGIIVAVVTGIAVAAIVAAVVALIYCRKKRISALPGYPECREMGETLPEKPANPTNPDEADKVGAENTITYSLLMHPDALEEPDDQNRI

B1: M103205H795-P1497m/M103202L889-SK1 (antibody, human IgG1, kappa)
heavy: not shown
light: DIVMTQSPATLSLSPGERATLSCTSSQSVYHANWLSWFQQKPGQPPKLLIYWASTLAYGVPSRFSGSGSGTDFTLTISSLQPEDAATYYCAGGYGGGRYAFGQGTKVEIKRTVAAPSVFIFPPSDEQLKSGTASVVCLLNNFYPREAKVQWKVDNALQSGNSQESVTEQDSKDSTYSLSSTLTLSKADYEKHKVYACEVTHQGLSSPVTKSFNRGEC
B2: M103205H795-P1500m/M103202L889-SK1 (antibody, human IgG1, kappa)
heavy: not shown
light: B1 light
B3: M103205H795-P1529m/M103202L889-SK1 (antibody, human IgG1, kappa)
heavy: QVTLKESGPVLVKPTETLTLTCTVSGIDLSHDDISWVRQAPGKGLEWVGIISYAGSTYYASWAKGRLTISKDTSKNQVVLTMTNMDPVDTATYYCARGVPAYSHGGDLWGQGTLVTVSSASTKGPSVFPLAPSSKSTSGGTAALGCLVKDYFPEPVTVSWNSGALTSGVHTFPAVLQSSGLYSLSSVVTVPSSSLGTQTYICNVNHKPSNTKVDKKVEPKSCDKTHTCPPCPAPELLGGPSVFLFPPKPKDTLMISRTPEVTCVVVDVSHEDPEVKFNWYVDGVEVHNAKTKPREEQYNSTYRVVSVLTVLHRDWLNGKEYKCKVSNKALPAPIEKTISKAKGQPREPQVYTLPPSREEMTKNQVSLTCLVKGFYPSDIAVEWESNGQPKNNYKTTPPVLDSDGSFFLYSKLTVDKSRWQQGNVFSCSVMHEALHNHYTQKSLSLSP
light: B1 light
B4: M103205H795-P1543m/M103202L889-SK1 (antibody, human IgG1, kappa)
heavy: not shown
light: B1 light
B5: M103205H795-P1542m/M103202L889-SK1 (antibody, human IgG1, kappa)
heavy: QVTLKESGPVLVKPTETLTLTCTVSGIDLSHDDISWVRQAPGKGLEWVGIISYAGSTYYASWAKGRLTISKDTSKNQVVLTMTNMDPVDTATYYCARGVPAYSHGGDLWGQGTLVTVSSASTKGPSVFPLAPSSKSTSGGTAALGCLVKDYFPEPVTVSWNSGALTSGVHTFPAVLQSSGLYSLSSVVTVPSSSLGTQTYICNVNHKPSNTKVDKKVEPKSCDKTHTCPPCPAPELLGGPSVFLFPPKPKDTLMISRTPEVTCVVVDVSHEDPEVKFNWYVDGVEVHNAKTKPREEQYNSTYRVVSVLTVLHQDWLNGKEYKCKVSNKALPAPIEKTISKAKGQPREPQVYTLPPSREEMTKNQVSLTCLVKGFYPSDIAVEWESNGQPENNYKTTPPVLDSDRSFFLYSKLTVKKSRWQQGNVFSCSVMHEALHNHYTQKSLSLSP
light: B1 light
B6: M103205H795-P1548m/M103202L889-SK1 (antibody, human IgG1, kappa)
heavy: QVTLKESGPVLVKPTETLTLTCTVSGIDLSHDDISWVRQAPGKGLEWVGIISYAGSTYYASWAKGRLTISKDTSKNQVVLTMTNMDPVDTATYYCARGVPAYSHGGDLWGQGTLVTVSSASTKGPSVFPLAPSSKSTSGGTAALGCLVKDYFPEPVTVSWNSGALTSGVHTFPAVLQSSGLYSLSSVVTVPSSSLGTQTYICNVNHKPSNTKVDKKVEPKSCDKTHTCPPCPAPELLGGPSVFLFPPKPKDTLMISRTPEVTCVVVDVSHEDPEVKFNWYVDGVEVHNAKTKPREEQYNSTYRVVSVLTVLHRDWLNGKEYKCKVSNKALPAPIEKTISKAKGQPREPQVYTLPPSREEMTKNQVSLTCLVKGFYPSDIAVEWESNRQPENNYKTTPPVLDSRGSFFLYSKLTVDKSRWQQGNVFSCSVMHEALHNHYTQKSLSLSP
light: B1 light
B7: M103205H795-P1525m/M103202L889-SK1 (antibody, human IgG1, kappa)
heavy: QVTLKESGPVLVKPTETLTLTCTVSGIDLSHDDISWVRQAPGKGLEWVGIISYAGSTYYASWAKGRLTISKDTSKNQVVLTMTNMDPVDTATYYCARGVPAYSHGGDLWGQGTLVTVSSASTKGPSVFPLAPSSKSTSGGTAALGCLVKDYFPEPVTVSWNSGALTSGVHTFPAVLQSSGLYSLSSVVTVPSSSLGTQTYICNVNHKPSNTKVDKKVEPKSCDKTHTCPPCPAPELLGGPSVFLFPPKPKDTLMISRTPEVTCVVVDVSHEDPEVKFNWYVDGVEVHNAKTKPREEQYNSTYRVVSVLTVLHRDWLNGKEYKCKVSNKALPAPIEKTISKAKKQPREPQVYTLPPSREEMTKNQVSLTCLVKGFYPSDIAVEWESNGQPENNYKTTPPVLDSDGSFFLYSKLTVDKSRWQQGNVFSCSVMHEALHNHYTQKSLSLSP
light: B1 light
B8: M103205H795-P1534m/M103202L889-SK1 (antibody, human IgG1, kappa)
heavy: not shown
light: B1 light
B9: M103205H795-P1532m/M103202L889-SK1 (antibody, human IgG1, kappa)
heavy: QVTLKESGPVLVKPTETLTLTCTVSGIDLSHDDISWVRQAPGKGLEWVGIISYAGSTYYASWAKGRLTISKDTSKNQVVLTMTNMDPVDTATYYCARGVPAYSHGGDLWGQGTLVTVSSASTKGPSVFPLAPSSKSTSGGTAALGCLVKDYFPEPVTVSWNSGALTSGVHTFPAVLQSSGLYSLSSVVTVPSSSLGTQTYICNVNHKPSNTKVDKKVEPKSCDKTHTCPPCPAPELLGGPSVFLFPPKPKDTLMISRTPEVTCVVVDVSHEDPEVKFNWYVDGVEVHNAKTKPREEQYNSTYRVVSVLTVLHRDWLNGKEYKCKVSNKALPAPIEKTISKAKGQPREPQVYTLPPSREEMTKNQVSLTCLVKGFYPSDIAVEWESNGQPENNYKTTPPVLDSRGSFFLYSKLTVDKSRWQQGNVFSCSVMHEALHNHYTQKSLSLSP
light: B1 light
B10: M103205H795-P1501m/M103202L889-SK1 (antibody, human IgG1, kappa)
heavy: not shown
light: B1 light
B11: M103205H795-P1537m/M103202L889-SK1 (antibody, human IgG1, kappa)
heavy: not shown
light: B1 light
B12: M103205H795-P1499m/M103202L889-SK1 (antibody, human IgG1, kappa)
heavy: not shown
light: B1 light
notes: also called MS1032LO06-P1499m
B13: M103205H795-P1526m/M103202L889-SK1 (antibody, human IgG1, kappa)
heavy: not shown
light: B1 light
B14: M103205H795-P1546m/M103202L889-SK1 (antibody, human IgG1, kappa)
heavy: B6 heavy with R387G, R403D, G404R, D415K
light: B1 light
B15: M103205H795-P1545m/M103202L889-SK1 (antibody, human IgG1, kappa)
heavy: B6 heavy with R387G, R403K, D415K
light: B1 light
B16: M103205H795-P1533m/M103202L889-SK1 (antibody, human IgG1, kappa)
heavy: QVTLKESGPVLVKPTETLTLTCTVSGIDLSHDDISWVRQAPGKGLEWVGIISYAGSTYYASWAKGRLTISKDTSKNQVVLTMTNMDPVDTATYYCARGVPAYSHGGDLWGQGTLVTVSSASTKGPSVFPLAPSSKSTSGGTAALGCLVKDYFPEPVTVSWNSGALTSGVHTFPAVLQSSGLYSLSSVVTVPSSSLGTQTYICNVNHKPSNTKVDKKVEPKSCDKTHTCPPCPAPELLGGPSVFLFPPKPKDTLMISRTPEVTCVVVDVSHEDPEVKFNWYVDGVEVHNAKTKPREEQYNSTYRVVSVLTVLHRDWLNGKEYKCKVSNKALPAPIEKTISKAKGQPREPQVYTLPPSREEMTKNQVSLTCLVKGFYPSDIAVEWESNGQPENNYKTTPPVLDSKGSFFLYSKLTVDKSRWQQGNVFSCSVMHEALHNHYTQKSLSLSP
light: B1 light
B17: M103205H795-P1522m/M103202L889-SK1 (antibody, human IgG1, kappa)
heavy: not shown
light: B1 light
B18: M103205H795-P1547m/M103202L889-SK1 (antibody, human IgG1, kappa)
heavy: B6 heavy with R387G, R403D, G404K, D415K
light: B1 light
B19: M103205H795-P1531m/M103202L889-SK1 (antibody, human IgG1, kappa)
heavy: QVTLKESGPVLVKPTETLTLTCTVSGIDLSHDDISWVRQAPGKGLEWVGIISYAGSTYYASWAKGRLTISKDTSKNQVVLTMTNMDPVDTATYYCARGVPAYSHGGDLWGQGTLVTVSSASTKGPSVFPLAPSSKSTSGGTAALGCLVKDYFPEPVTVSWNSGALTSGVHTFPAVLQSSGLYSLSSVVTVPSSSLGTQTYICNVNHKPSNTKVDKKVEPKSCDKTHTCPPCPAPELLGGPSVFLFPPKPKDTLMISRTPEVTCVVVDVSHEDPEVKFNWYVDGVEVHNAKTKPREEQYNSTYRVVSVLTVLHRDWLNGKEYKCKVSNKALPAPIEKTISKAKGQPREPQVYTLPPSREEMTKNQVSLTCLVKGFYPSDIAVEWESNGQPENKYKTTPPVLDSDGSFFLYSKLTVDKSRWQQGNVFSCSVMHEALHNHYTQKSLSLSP
light: B1 light
B20: M103205H795-P1544m/M103202L889-SK1 (antibody, human IgG1, kappa)
heavy: B6 heavy with R387G, D415K
light: B1 light
B21: M103205H795-P1539m/M103202L889-SK1 (antibody, human IgG1, kappa)
heavy: not shown
light: B1 light
B22: M103205H795-P1536m/M103202L889-SK1 (antibody, human IgG1, kappa)
heavy: not shown
light: B1 light
B23: M103205H795-P1527m/M103202L889-SK1 (antibody, human IgG1, kappa)
heavy: not shown
light: B1 light
B24: M103205H795-P1498m/M103202L889-SK1 (antibody, human IgG1, kappa)
heavy: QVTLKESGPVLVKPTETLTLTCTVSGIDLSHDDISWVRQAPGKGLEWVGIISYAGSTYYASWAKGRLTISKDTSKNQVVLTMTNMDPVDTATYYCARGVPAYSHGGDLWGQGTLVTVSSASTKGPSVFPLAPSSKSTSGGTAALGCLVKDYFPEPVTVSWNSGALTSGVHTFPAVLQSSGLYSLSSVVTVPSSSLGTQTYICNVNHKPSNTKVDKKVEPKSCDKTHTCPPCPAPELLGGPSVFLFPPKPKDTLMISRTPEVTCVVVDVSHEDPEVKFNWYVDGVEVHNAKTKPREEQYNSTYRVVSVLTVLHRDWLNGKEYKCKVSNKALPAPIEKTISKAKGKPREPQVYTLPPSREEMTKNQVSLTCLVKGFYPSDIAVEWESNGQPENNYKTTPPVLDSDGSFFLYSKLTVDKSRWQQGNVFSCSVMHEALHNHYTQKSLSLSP
light: B1 light
B25: M103205H795-P1524m/M103202L889-SK1 (antibody, human IgG1, kappa)
heavy: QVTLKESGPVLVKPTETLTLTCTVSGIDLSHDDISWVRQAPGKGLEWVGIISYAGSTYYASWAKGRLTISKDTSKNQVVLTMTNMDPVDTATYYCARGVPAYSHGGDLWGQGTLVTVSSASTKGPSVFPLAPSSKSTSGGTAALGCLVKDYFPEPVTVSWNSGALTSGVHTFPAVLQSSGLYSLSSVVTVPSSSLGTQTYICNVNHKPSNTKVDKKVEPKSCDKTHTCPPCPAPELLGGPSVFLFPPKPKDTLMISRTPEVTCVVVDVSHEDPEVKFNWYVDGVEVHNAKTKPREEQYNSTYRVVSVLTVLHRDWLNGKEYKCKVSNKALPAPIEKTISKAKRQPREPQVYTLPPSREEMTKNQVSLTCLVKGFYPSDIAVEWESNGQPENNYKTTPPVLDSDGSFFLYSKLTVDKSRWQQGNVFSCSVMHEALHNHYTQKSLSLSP
light: B1 light
B26: M103205H795-P1535m/M103202L889-SK1 (antibody, human IgG1, kappa)
heavy: not shown
light: B1 light
B27: M103205H795-P1523m/M103202L889-SK1 (antibody, human IgG1, kappa)
heavy: not shown
light: B1 light
B28: M103205H795-P1538m/M103202L889-SK1 (antibody, human IgG1, kappa)
heavy: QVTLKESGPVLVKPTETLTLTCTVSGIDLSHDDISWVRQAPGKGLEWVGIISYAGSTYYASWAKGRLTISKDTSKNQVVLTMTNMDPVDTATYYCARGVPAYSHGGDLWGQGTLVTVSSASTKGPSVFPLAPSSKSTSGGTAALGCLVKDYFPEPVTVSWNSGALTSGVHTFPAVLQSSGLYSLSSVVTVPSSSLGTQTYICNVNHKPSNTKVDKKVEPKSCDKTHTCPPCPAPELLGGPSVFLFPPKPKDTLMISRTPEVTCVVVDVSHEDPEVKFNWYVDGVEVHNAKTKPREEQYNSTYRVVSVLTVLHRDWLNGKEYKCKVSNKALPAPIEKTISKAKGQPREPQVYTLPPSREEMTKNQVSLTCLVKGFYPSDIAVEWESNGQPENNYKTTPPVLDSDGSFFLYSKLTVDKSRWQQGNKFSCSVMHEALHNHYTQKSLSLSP
light: B1 light
B29: M103205H795-P1530m/M103202L889-SK1 (antibody, human IgG1, kappa)
heavy: not shown
light: B1 light
B30: M103205H795-P1541m/M103202L889-SK1 (antibody, human IgG1, kappa)
heavy: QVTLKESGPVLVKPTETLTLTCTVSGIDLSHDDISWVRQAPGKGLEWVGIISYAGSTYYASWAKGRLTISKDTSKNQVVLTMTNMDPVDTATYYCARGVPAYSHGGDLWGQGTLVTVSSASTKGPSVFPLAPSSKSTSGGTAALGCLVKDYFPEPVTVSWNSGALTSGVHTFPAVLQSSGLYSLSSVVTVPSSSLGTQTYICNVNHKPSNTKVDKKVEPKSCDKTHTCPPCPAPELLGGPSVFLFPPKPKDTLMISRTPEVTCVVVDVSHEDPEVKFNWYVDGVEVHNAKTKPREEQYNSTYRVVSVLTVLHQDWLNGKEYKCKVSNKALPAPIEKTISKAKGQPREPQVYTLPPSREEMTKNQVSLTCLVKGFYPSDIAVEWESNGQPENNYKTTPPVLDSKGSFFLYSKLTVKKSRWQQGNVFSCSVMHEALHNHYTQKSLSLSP
light: B1 light
B31: M103205H795-P1528m/M103202L889-SK1 (antibody, human IgG1, kappa)
heavy: not shown
light: B1 light
B32: M103205H795-P1540m/M103202L889-SK1 (antibody, human IgG1, kappa)
heavy: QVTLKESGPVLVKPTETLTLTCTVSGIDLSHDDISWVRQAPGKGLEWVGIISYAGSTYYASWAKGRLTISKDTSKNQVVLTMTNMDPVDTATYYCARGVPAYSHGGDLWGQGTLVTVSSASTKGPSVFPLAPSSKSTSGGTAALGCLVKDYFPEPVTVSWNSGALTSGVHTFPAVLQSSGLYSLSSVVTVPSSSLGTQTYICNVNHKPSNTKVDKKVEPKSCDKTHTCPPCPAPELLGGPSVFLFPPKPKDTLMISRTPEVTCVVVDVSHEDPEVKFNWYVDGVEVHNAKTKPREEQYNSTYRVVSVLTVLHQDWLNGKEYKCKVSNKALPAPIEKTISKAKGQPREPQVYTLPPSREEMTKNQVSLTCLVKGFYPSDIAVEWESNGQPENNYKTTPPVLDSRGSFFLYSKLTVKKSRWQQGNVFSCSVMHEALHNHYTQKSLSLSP
light: B1 light

These binders were tested against T1, soluble mouse FcγRII, His-tagged (assay: SPR, mouse FcgRII-His captured, antigen-antibody complex injected, pH7.4, 25C).
Method: Regarding the produced Fc region variant-containing antibodies, binding assays between soluble mouse FcγRII and antigen-antibody complexes were performed using BIACORE® T200 (GE Healthcare). Soluble mouse FcγRII was produced in the form of a His-tagged molecule by a method known to those skilled in the art. An appropriate amount of an anti-His antibody was fixed onto Sensor chip CM5 (GE Healthcare) by the amine coupling method using a His capture kit (GE Healthcare) to capture mouse FcγRII. Next, an antibody-antigen complex and a running buffer (as a reference solution) were injected, and interaction was allowed to take place with the mouse FcγRII captured onto the sensor chip. 20 mM N-(2-Acetamido)-2-aminoethanesulfonic acid, 150 mM NaCl, 1.2 mM CaCl₂, and 0.05% (w/v) TWEEN, 20 at pH7.4 was used as the running buffer, and the respective buffer was also used to dilute the soluble mouse FcγRII. To regenerate the sensor chip, 10 mM glycine-HCl at pH1.5 was used. All measurements were carried out at 25° C. […] To calculate the parameters, the BIACORE® T100 Evaluation Software (GE Healthcare) was used.

biacore IC binding | Binder
1.49 relative to SG1 (=1.00) | B1
1.32 relative to SG1 (=1.00) | B2
1.08 relative to SG1 (=1.00) | B3
1.19 relative to SG1 (=1.00) | B4
1.21 relative to SG1 (=1.00) | B5
1.37 relative to SG1 (=1.00) | B6
1.31 relative to SG1 (=1.00) | B7
1.12 relative to SG1 (=1.00) | B8
1.23 relative to SG1 (=1.00) | B9
1.82 relative to SG1 (=1.00) | B10
1.32 relative to SG1 (=1.00) | B11
1.98 relative to SG1 (=1.00) | B12
1.04 relative to SG1 (=1.00) | B13
1.41 relative to SG1 (=1.00) | B14
1.8 relative to SG1 (=1.00) | B15
1.18 relative to SG1 (=1.00) | B16

biacore IC binding | Binder
1.24 relative to SG1 (=1.00) | B17
1.33 relative to SG1 (=1.00) | B18
1.01 relative to SG1 (=1.00) | B19
2.04 relative to SG1 (=1.00) | B20
0.9 relative to SG1 (=1.00) | B21
1.16 relative to SG1 (=1.00) | B22
0.98 relative to SG1 (=1.00) | B23
1.38 relative to SG1 (=1.00) | B24
1.4 relative to SG1 (=1.00) | B25
1.11 relative to SG1 (=1.00) | B26
1.19 relative to SG1 (=1.00) | B27
1.11 relative to SG1 (=1.00) | B28
1.09 relative to SG1 (=1.00) | B29
1.57 relative to SG1 (=1.00) | B30
1.12 relative to SG1 (=1.00) | B31
1.73 relative to SG1 (=1.00) | B32

Each binder was assayed against T2, human FcγRIIb constitutively expressed … (assay: cell-based or functional assay).

celluar uptake | Binder
1.38 relative to SG1 (=1.00) | B1
1.82 relative to SG1 (=1.00) | B2
2.86 relative to SG1 (=1.00) | B3
3.7 relative to SG1 (=1.00) | B4
3.32 relative to SG1 (=1.00) | B5
2.3 relative to SG1 (=1.00) | B6
3.55 relative to SG1 (=1.00) | B7
3.12 relative to SG1 (=1.00) | B8
4.16 relative to SG1 (=1.00) | B9
2.4 relative to SG1 (=1.00) | B10
2.77 relative to SG1 (=1.00) | B11
3.61 relative to SG1 (=1.00) | B12
1.2 relative to SG1 (=1.00) | B13
5.1 relative to SG1 (=1.00) | B14
7.73 relative to SG1 (=1.00) | B15
3.52 relative to SG1 (=1.00) | B16

celluar uptake | Binder
2.13 relative to SG1 (=1.00) | B17
4.85 relative to SG1 (=1.00) | B18
2.35 relative to SG1 (=1.00) | B19
7.66 relative to SG1 (=1.00) | B20
3.2 relative to SG1 (=1.00) | B21
2.05 relative to SG1 (=1.00) | B22
0.92 relative to SG1 (=1.00) | B23
1.56 relative to SG1 (=1.00) | B24
3.66 relative to SG1 (=1.00) | B25
2.49 relative to SG1 (=1.00) | B26
1.91 relative to SG1 (=1.00) | B27
1.84 relative to SG1 (=1.00) | B28
3.12 relative to SG1 (=1.00) | B29
7.17 relative to SG1 (=1.00) | B30
3.02 relative to SG1 (=1.00) | B31
7.64 relative to SG1 (=1.00) | B32
